Sequences and labels used below:
B1: IRs probe (ospC operator) (dsDNA)
DNA 1: CAATATTTTTCAAATTCTTCAATATTTATTCAAGATATTGAAGAATTTGAAAAAATTATTTTTTCAAATA
DNA 2: TATTTGAAAAAATAATTTTTTCAAATTCTTCAATATCTTGAATAAATATTGAAGAATTTGAAAAATATTG
B2: cisII probe (dsDNA)
DNA 1: TGTTATTTGTTAATCTTATAATATAATTATACTTGTATTAAGTTATATTAATATAAAAGGAGAATATATT
DNA 2: AATATATTCTCCTTTTATATTAATATAACTTAATACAAGTATAATTATATTATAAGATTAACAAATAACA
B3: cisI probe (dsDNA)
DNA 1: TAATTAGAACCAAACTTAATTAAAACCAAACTTAATTGAAGTTATTATCATTTTATTTTTTTTCAATTTT
DNA 2: AAAATTGAAAAAAAATAAAATGATAATAACTTCAATTAAGTTTGGTTTTAATTAAGTTTGGTTCTAATTA

This data set concerns the target BosR (Borrelia burgdorferi B31, UniProt O51592 1-176). The data set can be described thus: EMSA; 400 nM BosR, 1 nM probe, 50 ug/ml salmon sperm DNA. The conditions noted are these: protein: recombinant; tags: C-terminal His6 (pET-23a); chain copies: 2; label: 5' digoxigenin on one strand. In general terms: In EMSA bound probe runs differently from free probe, usually more slowly.
Consider B1, for which the binding result is “no binding”.
To B2 belongs “binds”; to B3, “binds”.

The record behind these values is publication PMC4182837, “BosR Functions as a Repressor of the ospAB Operon in Borrelia burgdorferi”.
